PMC7611526
pKd: −log10 of the molar value.

How the values were obtained:
Experiment in all cases: EMSA
[1] = system: OCT4-del-73 (Homo sapiens)
OCT4-DBD (Homo sapiens) = system: OCT4-DBD (Homo sapiens)
OCT4-WT (Homo sapiens) = system: OCT4-WT (Homo sapiens)

Row | Substance | pKd [1] | pKd (OCT4-DBD (Homo sapiens)) | pKd (OCT4-WT (Homo sapiens))
1 | LIN28B-nucleosome | 9.02 | – | –
2 | LIN28B-DNA | 9.07 | 8.34 | 8.84
